# Experimental data as given in paper PMC8922439.
# Columns and labels:
# [1] = target: mRNA-expressed CH848 10.17DT DS SOSIP trimer (HIV-1 (CH848 10.17)); assay: SEC
# [2] = target: mRNA-expressed CH848 10.17DT SOSIPv4.1 trimer (HIV-1 (CH848 10.17)); assay: SEC
Substance,stoichiometry N [1],stoichiometry N [2]
mRNA-expressed CH848 10.17DT DS SOSIP trimer (domain or fragment),3,
mRNA-expressed CH848 10.17DT SOSIPv4.1 trimer (domain or fragment),,3
